Positions count from the first letter of the chain named. Like-named read-outs stand apart in the source and are kept apart here.

The text below walks through data of patent US20160168251A1 (MorphoSys, published 2016).

Test [1] deals with T1, human NPRB on HEK293 cells in the presence of CNP (human, UniProt P20594 23-1047; P23582 105-126).
T1 construct: whole, on cells;mature; also called HEK NPRB cells + 100 nM CNP
In words: FACS, HEK NPRB cells with 100 nM CNP. For orientation: In flow cytometry, cells or beads pass a laser one at a time.
Description: (§1) HEK NPRA cells are detached with Accutase (PAA Laboratories GmbH, Cat. No. L11-007, Austria), harvested by centrifugation (900 rpm, 4 minutes) and resuspended in FACS buffer (PBS/3% FCS/0.02% NaN3) to a final concentration of 10⁶ cells/ml. 100 μl of the cell suspension is transferred to each well of a 96 round bottom plate (TC Microwell 96U, Nunc). […] Cells are washed in 150 μl of FACS buffer, pelleted and resuspended in 50 μl of the solution containing the primary antibody comprising a BEL extract of Fabs, a diluted BEL extract or purified antibody diluted in FACS buffer and incubated on ice for 30 min. Cells are washed again in FACS buffer and resuspended in 50 μl of FACS buffer containing the secondary antibody (R-Phycoerythrin-conjugated Affipure F(ab′)₂ Fragment Goat Anti-Human IgG, Dianova) and incubated on ice for 45 min. Cells are washed twice with FACS buffer and resuspended in 200 μl of FACS buffer for analysis in the FACS Array (BD Biosciences).

Test [2] addresses T2, human NPRB on HEK293 cells, without added ligand (human, UniProt P20594 23-1047).
T2 construct: whole, on cells; also called HEK NPRB cells; natriuretic peptide receptor B
T2 sequence (looked up): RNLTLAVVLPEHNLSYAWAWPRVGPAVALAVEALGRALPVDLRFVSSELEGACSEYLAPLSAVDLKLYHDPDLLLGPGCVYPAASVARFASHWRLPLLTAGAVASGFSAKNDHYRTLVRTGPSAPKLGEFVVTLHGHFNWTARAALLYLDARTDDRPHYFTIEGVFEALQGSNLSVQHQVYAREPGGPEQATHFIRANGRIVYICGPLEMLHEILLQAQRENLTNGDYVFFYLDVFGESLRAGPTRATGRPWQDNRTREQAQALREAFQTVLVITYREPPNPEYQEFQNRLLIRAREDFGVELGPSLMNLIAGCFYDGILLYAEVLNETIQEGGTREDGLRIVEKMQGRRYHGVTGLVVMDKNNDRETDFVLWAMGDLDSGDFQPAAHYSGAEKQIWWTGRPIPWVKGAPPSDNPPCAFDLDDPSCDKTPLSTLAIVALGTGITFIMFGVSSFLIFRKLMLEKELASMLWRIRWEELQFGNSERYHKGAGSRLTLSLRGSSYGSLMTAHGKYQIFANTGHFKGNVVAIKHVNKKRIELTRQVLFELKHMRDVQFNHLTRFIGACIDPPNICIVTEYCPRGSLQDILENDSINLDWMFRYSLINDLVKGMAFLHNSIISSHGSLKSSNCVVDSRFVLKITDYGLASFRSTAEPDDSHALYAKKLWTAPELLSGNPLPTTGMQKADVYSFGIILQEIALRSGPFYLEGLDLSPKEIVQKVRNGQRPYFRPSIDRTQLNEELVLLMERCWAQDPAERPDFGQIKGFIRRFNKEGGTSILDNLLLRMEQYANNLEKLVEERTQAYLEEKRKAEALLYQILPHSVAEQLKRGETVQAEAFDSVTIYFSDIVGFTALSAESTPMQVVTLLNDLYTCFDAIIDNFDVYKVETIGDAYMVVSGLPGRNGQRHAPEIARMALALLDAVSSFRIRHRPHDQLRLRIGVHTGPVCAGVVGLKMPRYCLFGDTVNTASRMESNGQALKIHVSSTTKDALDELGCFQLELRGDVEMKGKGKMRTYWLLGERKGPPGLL
The test is described as follows: FACS, HEK NPRB cells without ligand.
Description: as §1

Test [3] deals with T1, human NPRB on HEK293 cells in the …. In words: FACS, HEK NPRB cells with 100 nM CNP. This is another data set of the same source.
Description: as §1
Test [4] has as its target T3, human NPRA on HEK293 cells, without added ligand (human, UniProt P16066 33-1061).
T3 construct: a signal peptide is not delimited; also called HEK NPRA cells; HEK hNPRA cells
T3 sequence: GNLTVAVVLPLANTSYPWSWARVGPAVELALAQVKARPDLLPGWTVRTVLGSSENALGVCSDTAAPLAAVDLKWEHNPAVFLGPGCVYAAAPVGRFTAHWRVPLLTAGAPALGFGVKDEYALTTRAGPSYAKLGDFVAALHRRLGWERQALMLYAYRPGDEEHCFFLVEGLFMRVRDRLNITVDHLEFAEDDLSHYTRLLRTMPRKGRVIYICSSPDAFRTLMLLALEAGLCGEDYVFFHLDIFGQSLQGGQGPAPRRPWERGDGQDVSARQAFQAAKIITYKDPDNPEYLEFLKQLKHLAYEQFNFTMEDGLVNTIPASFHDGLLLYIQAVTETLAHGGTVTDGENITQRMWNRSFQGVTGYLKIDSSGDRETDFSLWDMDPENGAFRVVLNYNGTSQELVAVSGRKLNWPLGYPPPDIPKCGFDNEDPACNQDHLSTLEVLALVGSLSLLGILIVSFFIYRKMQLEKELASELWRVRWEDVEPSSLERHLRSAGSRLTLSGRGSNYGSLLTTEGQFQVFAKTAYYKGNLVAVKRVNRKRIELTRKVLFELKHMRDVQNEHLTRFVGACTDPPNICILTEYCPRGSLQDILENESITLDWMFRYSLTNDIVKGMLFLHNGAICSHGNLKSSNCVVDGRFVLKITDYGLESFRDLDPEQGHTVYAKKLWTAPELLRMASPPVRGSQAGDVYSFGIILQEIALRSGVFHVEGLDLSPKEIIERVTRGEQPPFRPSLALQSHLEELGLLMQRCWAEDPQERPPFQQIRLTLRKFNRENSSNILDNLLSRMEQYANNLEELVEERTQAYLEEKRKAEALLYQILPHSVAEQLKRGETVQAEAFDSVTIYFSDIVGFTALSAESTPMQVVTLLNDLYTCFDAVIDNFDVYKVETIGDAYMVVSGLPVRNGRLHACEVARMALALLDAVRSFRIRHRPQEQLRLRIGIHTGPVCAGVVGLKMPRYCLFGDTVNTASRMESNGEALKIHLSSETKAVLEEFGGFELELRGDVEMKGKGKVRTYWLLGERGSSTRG
In words: FACS, HEK NPRA cells without ligand.
Description: as §1

The target in test [5] is T2, human NPRB on HEK293 cells, without …. In words: FACS, HEK NPRB cells without ligand. The source holds these as a separate data set.
Description: as §1

T1 sequence (P23582 105-126 limits assumed, chain 2 of 2, one chain of several): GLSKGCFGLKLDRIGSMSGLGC

B1: 5502 IgG4_Pro (antibody, V domains shown)
VH: QVQLQQSGPGLVKPSQTLSLTCAISGDSVSSRSASWSWIRQSPGRGLEWLGRIYYRSKWYNDYAVSVKSRITINPDTSKNQFSLQLNSVTPEDTAVYYCARMDVPSFRYFDVWGQGTLVTVSS
VL: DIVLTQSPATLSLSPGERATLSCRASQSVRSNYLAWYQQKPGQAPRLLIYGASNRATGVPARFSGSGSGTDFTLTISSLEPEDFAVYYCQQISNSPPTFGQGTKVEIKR
notes: Human IgG4_Pro
On to B1, for which the binding result in test [1] and in test [2] was “no binding (tested: 20 nM)” throughout.

B2: 5591 IgG4_Pro (antibody, V domains shown)
VH: B1 VH with I53T, K58H, N61Y, D62E, V65Q
VL: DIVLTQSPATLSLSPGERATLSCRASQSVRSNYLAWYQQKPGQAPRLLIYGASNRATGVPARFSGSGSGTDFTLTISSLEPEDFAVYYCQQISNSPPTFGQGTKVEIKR
Turning to B2, the binding result in test [3], in test [4] and in test [5] was “no binding (tested: 20 nM)” throughout.

B3: 5592 IgG4_Pro (antibody, V domains shown)
VH: B1 VH with I53T, K58H, N61Y, D62E, V65Q
VL: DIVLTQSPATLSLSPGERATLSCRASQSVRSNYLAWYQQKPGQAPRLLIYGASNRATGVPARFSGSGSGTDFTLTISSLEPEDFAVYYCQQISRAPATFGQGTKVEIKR
In the case of B3, the binding result in test [3], in test [4] and in test [5] was “no binding (tested: 20 nM)” in each case.
